Data as given in PMC3932240 (Biochemistry, 2013).

Molecular target: the molecule itself
Assay: SEC

B1: CpcS-III bilin lyase from Thermosynechococcus elongatus BP-1, C-terminally His-tagged (from pTER13-21) (enzyme, UniProt Q8DI91 1-182, looked up)
chain: MCIGMDIRDFFAQSAGRWFSQRTSHHLAFKQTESGKSQLTIELLSVDDPAVIALCQQYDMDPAWAVCGARVSWDGTMEWDNEKHEGSTVLVPIMDQGSRMEGKLLREMGYAEKAPVAGRFSMGSDGALTLITEYETIYSEERLWFASPNLRLRTSILKRFGGFSMASFCSEIRLGVTQPANS
modifications: selenomethionine-labeled in the sample that was crystallized
stoichiometry N: 2
